Changes are numbered by the printed parent chain.

The values below come from publication PMC11603127 (Computational and Structural Biotechnology Journal, 2024).

For assay [1], the target named is T1, Recombinant NAA10 (wild type) (human, UniProt P41227 1-235, labeled with Monolith NT Protein Labeling Kit RED).
T1 sequence: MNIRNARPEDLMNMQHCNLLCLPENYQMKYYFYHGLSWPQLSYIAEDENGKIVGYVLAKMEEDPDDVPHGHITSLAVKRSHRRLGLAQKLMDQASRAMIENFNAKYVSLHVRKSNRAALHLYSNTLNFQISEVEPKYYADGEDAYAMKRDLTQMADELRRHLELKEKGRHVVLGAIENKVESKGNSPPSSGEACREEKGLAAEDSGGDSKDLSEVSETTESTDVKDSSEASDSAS
As to the kind of experiment: MST.

Another assay deals with T2, Recombinant NAA10^F128L (human, UniProt P41227 1-235, F128L, labeled with Monolith NT Protein Labeling Kit RED).
T2 sequence: T1 sequence with F128L
As to the kind of experiment: MST.

For EEEIAALRWGRPVGRRRRPVRVYP [EEEI24 oligopeptide], the binding result (in assay [1]; with Recombinant NAA10^F128L) was “binds” throughout.
